B1: EHEE_rd2_1257 (parent)
chain: EEERTFTNEEEARKAKKEAEKRGLRVTVTKDGTTWRVRIG

Variants of: B1
Test: folding stability dG (cDNA display proteolysis); higher = more stable
Details: PBS, room temperature

| Variant | folding stability dG [kcal/mol] |
| --- | --- |
| EEERTFTWEEEARKAKKEAEKRGLRVTVTKDGTTWRVRIG [N8W] | 0.726 |
| EEERTFTVEEEARKAKKEAEKRGLRVTVTKDGTTWRVRIG [N8V] | 1.43 |
| EEERTFTQEEEARKAKKEAEKRGLRVTVTKDGTTWRVRIG [N8Q] | 1.12 |
| EEERTFTSEEEARKAKKEAEKRGLRVTVTKDGTTWRVRIG [N8S] | 2.31 |
| EEERTFTYEEEARKAKKEAEKRGLRVTVTKDGTTWRVRIG [N8Y] | 0.987 |
| EEERTFTTEEEARKAKKEAEKRGLRVTVTKDGTTWRVRIG [N8T] | 2.35 |
| EEERTFTREEEARKAKKEAEKRGLRVTVTKDGTTWRVRIG [N8R] | 1.49 |
| EEERTFTNEELARKAKKEAEKRGLRVTVTKDGTTWRVRIG [E11L] | 1.31 |
| EEERTFTNEEQARKAKKEAEKRGLRVTVTKDGTTWRVRIG [E11Q] | 1.58 |
| EEERTFTNEEIARKAKKEAEKRGLRVTVTKDGTTWRVRIG [E11I] | 0.287 |
| EEERTFTNEERARKAKKEAEKRGLRVTVTKDGTTWRVRIG [E11R] | 0.608 |
| EEERTFTNEEFARKAKKEAEKRGLRVTVTKDGTTWRVRIG [E11F] | 0.906 |
| EEERTFTNEEKARKAKKEAEKRGLRVTVTKDGTTWRVRIG [E11K] | 0.826 |
| EEERTFTNEENARKAKKEAEKRGLRVTVTKDGTTWRVRIG [E11N] | 1.18 |
| EEERTFTNEECARKAKKEAEKRGLRVTVTKDGTTWRVRIG [E11C] | 1.56 |
| EEERTFTNEESARKAKKEAEKRGLRVTVTKDGTTWRVRIG [E11S] | 1.46 |
| EEERTFTNEEGARKAKKEAEKRGLRVTVTKDGTTWRVRIG [E11G] | 1.34 |
| EEERTFTNEEHARKAKKEAEKRGLRVTVTKDGTTWRVRIG [E11H] | 1.32 |
| EEERTFTNEEVARKAKKEAEKRGLRVTVTKDGTTWRVRIG [E11V] | 0.538 |
| EEERTFTNEEWARKAKKEAEKRGLRVTVTKDGTTWRVRIG [E11W] | 1.07 |
| EEERTFTNEEPARKAKKEAEKRGLRVTVTKDGTTWRVRIG [E11P] | -0.587 |

| Variant | folding stability dG [kcal/mol] |
| --- | --- |
| EEERTFTNEEMARKAKKEAEKRGLRVTVTKDGTTWRVRIG [E11M] | 1.55 |
| EEERTFTNEEDARKAKKEAEKRGLRVTVTKDGTTWRVRIG [E11D] | 2.28 |
| EEERTFTNEEAARKAKKEAEKRGLRVTVTKDGTTWRVRIG [E11A] | 1.8 |
| EEERTFTNEEYARKAKKEAEKRGLRVTVTKDGTTWRVRIG [E11Y] | 0.886 |
| EEERTFTNEETARKAKKEAEKRGLRVTVTKDGTTWRVRIG [E11T] | 0.995 |
| EEERTFTNEEEYRKAKKEAEKRGLRVTVTKDGTTWRVRIG [A12Y] | 1.34 |
| EEERTFTNEEEMRKAKKEAEKRGLRVTVTKDGTTWRVRIG [A12M] | 2.08 |
| EEERTFTNEEEIRKAKKEAEKRGLRVTVTKDGTTWRVRIG [A12I] | -0.149 |
| EEERTFTNEEEWRKAKKEAEKRGLRVTVTKDGTTWRVRIG [A12W] | 0.906 |
| EEERTFTNEEEFRKAKKEAEKRGLRVTVTKDGTTWRVRIG [A12F] | 1.54 |
| EEERTFTNEEECRKAKKEAEKRGLRVTVTKDGTTWRVRIG [A12C] | 2 |
| EEERTFTNEEELRKAKKEAEKRGLRVTVTKDGTTWRVRIG [A12L] | 0.876 |
| EEERTFTNEEETRKAKKEAEKRGLRVTVTKDGTTWRVRIG [A12T] | 0.316 |
| EEERTFTNEEEVRKAKKEAEKRGLRVTVTKDGTTWRVRIG [A12V] | 1.51 |
| EEERTFTNEEESRKAKKEAEKRGLRVTVTKDGTTWRVRIG [A12S] | 0.218 |
| EEERTFTNEDEARKAKKEAEKRGLRVTVTKDGTTWRVRIG [E10D] | 2.01 |
| EEERTFTNEYEARKAKKEAEKRGLRVTVTKDGTTWRVRIG [E10Y] | 2.21 |
| EEERTFTNEREARKAKKEAEKRGLRVTVTKDGTTWRVRIG [E10R] | 2.23 |
| EEERTFTNEIEARKAKKEAEKRGLRVTVTKDGTTWRVRIG [E10I] | 1.98 |
| EEERTFTNETEARKAKKEAEKRGLRVTVTKDGTTWRVRIG [E10T] | 1.81 |
| EEERTFTNEWEARKAKKEAEKRGLRVTVTKDGTTWRVRIG [E10W] | 2.57 |

| Variant | folding stability dG [kcal/mol] |
| --- | --- |
| EEERTFTNEFEARKAKKEAEKRGLRVTVTKDGTTWRVRIG [E10F] | 2.01 |
| EEERTFTNEAEARKAKKEAEKRGLRVTVTKDGTTWRVRIG [E10A] | 2.16 |
| EEERTFTNEKEARKAKKEAEKRGLRVTVTKDGTTWRVRIG [E10K] | 2.07 |
| EEERTFTNEGEARKAKKEAEKRGLRVTVTKDGTTWRVRIG [E10G] | 1.81 |
| EEERTFTNEMEARKAKKEAEKRGLRVTVTKDGTTWRVRIG [E10M] | 2.02 |
| EEERTFTNENEARKAKKEAEKRGLRVTVTKDGTTWRVRIG [E10N] | 1.86 |
| EEERTFTNECEARKAKKEAEKRGLRVTVTKDGTTWRVRIG [E10C] | 2.31 |
| EEERTFTNESEARKAKKEAEKRGLRVTVTKDGTTWRVRIG [E10S] | 1.89 |
| EEERTFTNEHEARKAKKEAEKRGLRVTVTKDGTTWRVRIG [E10H] | 1.96 |
| EEERTFTNELEARKAKKEAEKRGLRVTVTKDGTTWRVRIG [E10L] | 2.11 |
| EEERTFTNEQEARKAKKEAEKRGLRVTVTKDGTTWRVRIG [E10Q] | 2.03 |
| EEERTFTNEVEARKAKKEAEKRGLRVTVTKDGTTWRVRIG [E10V] | 1.86 |
| EEERTFTNEPEARKAKKEAEKRGLRVTVTKDGTTWRVRIG [E10P] | 1.38 |
| EEERTFTNEEEARKLKKEAEKRGLRVTVTKDGTTWRVRIG [A15L] | 2.02 |
| EEERTFTNEEEARKWKKEAEKRGLRVTVTKDGTTWRVRIG [A15W] | 3.04 |
| EEERTFTNEEEARKHKKEAEKRGLRVTVTKDGTTWRVRIG [A15H] | 1.67 |
| EEERTFTNEEEARKNKKEAEKRGLRVTVTKDGTTWRVRIG [A15N] | 0.555 |
| EEERTFTNEEEARKEKKEAEKRGLRVTVTKDGTTWRVRIG [A15E] | 1.11 |
| EEERTFTNEEEARKKKKEAEKRGLRVTVTKDGTTWRVRIG [A15K] | 0.42 |
| EEERTFTNEEEARKDKKEAEKRGLRVTVTKDGTTWRVRIG [A15D] | 0.155 |
